Measurements reported in patent US8895526B2, “Identification of RNAI targets and use of RNAI for rational therapy of chemotherapy-resistant leukemia and other cancers” (Cold Spring Harbor Laboratory, priority 2009, dated 2014).

B1: Mcl1.2018: shRNA, SEQ ID NO: 140 (also SEQ ID NO: 45) (nucleic acid)
chain: TGCTGTTGACAGTGAGCGCGGACTGGTTATAGATTTATAATAGTGAAGCCACAGATGTATTATAAATCTATAACCAGTCCATGCCTACTGCCTCGGA
B2: AU018778.350: shRNA, SEQ ID NO: 94 (nucleic acid)
chain: TGCTGTTGACAGTGAGCGCCTGAAGATTGCCTGTACCTAATAGTGAAGCCACAGATGTATTAGGTACAGGCAATCTTCAGATGCCTACTGCCTCGGA
B3: Mgst1.549: shRNA, SEQ ID NO: 142 (nucleic acid)
chain: TGCTGTTGACAGTGAGCGCAAGGAGCAGACTGTACTTGTATAGTGAAGCCACAGATGTATACAAGTACAGTCTGCTCCTTATGCCTACTGCCTCGGA
B4: Klrb1b.845: shRNA, SEQ ID NO: 136 (nucleic acid)
chain: TGCTGTTGACAGTGAGCGCCAGATTCTTCATTGTATAAATTAGTGAAGCCACAGATGTAATTTATACAATGAAGAATCTGTTGCCTACTGCCTCGGA
B5: Ccr1.733: shRNA, SEQ ID NO: 101 (nucleic acid)
chain: TGCTGTTGACAGTGAGCGCCTGGATTGACTACAAGTTGAATAGTGAAGCCACAGATGTATTCAACTTGTAGTCAATCCAGATGCCTACTGCCTCGGA
B6: Acpp.818: shRNA, SEQ ID NO: 87 (nucleic acid)
chain: TGCTGTTGACAGTGAGCGAAAAGAGAAATCTCGACTCCAATAGTGAAGCCACAGATGTATTGGAGTCGAGATTTCTCTTTCTGCCTACTGCCTCGGA
B7: Pkm2.2154: shRNA, SEQ ID NO: 166 (nucleic acid)
chain: TGCTGTTGACAGTGAGCGCGCCCACCTGAATGTCAATAAATAGTGAAGCCACAGATGTATTTATTGACATTCAGGTGGGCATGCCTACTGCCTCGGA
B8: Rock2.3898: shRNA, SEQ ID NO: 174 (nucleic acid)
chain: TGCTGTTGACAGTGAGCGCCAGATTCTATATGCCAATGAATAGTGAAGCCACAGATGTATTCATTGGCATATAGAATCTGATGCCTACTGCCTCGGA
B9: Dnajc10.2057: shRNA, SEQ ID NO: 113 (nucleic acid)
chain: TGCTGTTGACAGTGAGCGCTCCAACGACAGTGGTATTCAATAGTGAAGCCACAGATGTATTGAATACCACTGTCGTTGGATTGCCTACTGCCTCGGA
B10: Klf5.581: shRNA, SEQ ID NO: 135 (nucleic acid)
chain: TGCTGTTGACAGTGAGCGCTCCGATAATTTCAGAGCATAATAGTGAAGCCACAGATGTATTATGCTCTGAAATTATCGGAATGCCTACTGCCTCGGA
B11: Cdc42ep3.1922: shRNA, SEQ ID NO: 104 (nucleic acid)
chain: TGCTGTTGACAGTGAGCGCAACAAGCAAGGTATTACTGTATAGTGAAGCCACAGATGTATACAGTAATACCTTGCTTGTTTTGCCTACTGCCTCGGA
B12: Centd3.3993: shRNA, SEQ ID NO: 107 (nucleic acid)
chain: TGCTGTTGACAGTGAGCGCCTGGACCACAAGCATCCTTAATAGTGAAGCCACAGATGTATTAAGGATGCTTGTGGTCCAGTTGCCTACTGCCTCGGA
B13: Hexa.1510: shRNA, SEQ ID NO: 131 (nucleic acid)
chain: TGCTGTTGACAGTGAGCGAGAGCAGTAACCTGACAACTAATAGTGAAGCCACAGATGTATTAGTTGTCAGGTTACTGCTCCTGCCTACTGCCTCGGA
B14: Ntrk3.167: shRNA, SEQ ID NO: 156 (nucleic acid)
chain: TGCTGTTGACAGTGAGCGCCTGCAGCAAGACTGAGATCAATAGTGAAGCCACAGATGTATTGATCTCAGTCTTGCTGCAGATGCCTACTGCCTCGGA
B15: Nrg4.1358: shRNA, SEQ ID NO: 153 (nucleic acid)
chain: TGCTGTTGACAGTGAGCGCCAGACATGTTGAAGTGAATAATAGTGAAGCCACAGATGTATTATTCACTTCAACATGTCTGTTGCCTACTGCCTCGGA
B16: Aspa.996: shRNA, SEQ ID NO: 92 (nucleic acid)
chain: TGCTGTTGACAGTGAGCGCATGAAGCTGCATATTATGAAATAGTGAAGCCACAGATGTATTTCATAATATGCAGCTTCATTTGCCTACTGCCTCGGA
B17: Tex14.3976: shRNA, SEQ ID NO: 185 (nucleic acid)
chain: TGCTGTTGACAGTGAGCGCCAGGAGCTACTTGATGAAATTTAGTGAAGCCACAGATGTAAATTTCATCAAGTAGCTCCTGATGCCTACTGCCTCGGA
B18: Slc11a1.307: shRNA, SEQ ID NO: 178 (nucleic acid)
chain: TGCTGTTGACAGTGAGCGCAACATTGAGTCCGACCTTCAATAGTGAAGCCACAGATGTATTGAAGGTCGGACTCAATGTTTTGCCTACTGCCTCGGA
B19: Ogg1.395: shRNA, SEQ ID NO: 157 (nucleic acid)
chain: TGCTGTTGACAGTGAGCGACAGATCAAGTATGGACACTGATAGTGAAGCCACAGATGTATCAGTGTCCATACTTGATCTGCTGCCTACTGCCTCGGA
B20: Centa1.940: shRNA, SEQ ID NO: 106 (nucleic acid)
chain: TGCTGTTGACAGTGAGCGCCCGAAGGCTCATGTACTTCAATAGTGAAGCCACAGATGTATTGAAGTACATGAGCCTTCGGTTGCCTACTGCCTCGGA
B21: Ptpn18.247: shRNA, SEQ ID NO: 170 (nucleic acid)
chain: TGCTGTTGACAGTGAGCGCCACGAACAAGAACCGCTACAATAGTGAAGCCACAGATGTATTGTAGCGGTTCTTGTTCGTGTTGCCTACTGCCTCGGA
B22: Nrp1.479: shRNA, SEQ ID NO: 155 (nucleic acid)
chain: TGCTGTTGACAGTGAGCGCACCCTCATTCTTACCATCCAATAGTGAAGCCACAGATGTATTGGATGGTAAGAATGAGGGTATGCCTACTGCCTCGGA
B23: Fas.1344: shRNA, SEQ ID NO: 118 (nucleic acid)
chain: TGCTGTTGACAGTGAGCGCGAGGAGAATTATAAACTGAAATAGTGAAGCCACAGATGTATTTCAGTTTATAATTCTCCTCATGCCTACTGCCTCGGA
B24: Fpr1.375: shRNA, SEQ ID NO: 124 (nucleic acid)
chain: TGCTGTTGACAGTGAGCGATTGGTTCATGTGCAAATTCATTAGTGAAGCCACAGATGTAATGAATTTGCACATGAACCAACTGCCTACTGCCTCGGA
B25: Myb.2572: shRNA, SEQ ID NO: 143 (also SEQ ID NO: 52) (nucleic acid)
chain: TGCTGTTGACAGTGAGCGCTCCATGTATCTCAGTCACTAATAGTGAAGCCACAGATGTATTAGTGACTGAGATACATGGAATGCCTACTGCCTCGGA
B26: S100a9.148: shRNA, SEQ ID NO: 177 (nucleic acid)
chain: TGCTGTTGACAGTGAGCGCCAGACAAATGGTGGAAGCACATAGTGAAGCCACAGATGTATGTGCTTCCACCATTTGTCTGATGCCTACTGCCTCGGA
B27: Nrp1.2022: shRNA, SEQ ID NO: 154 (nucleic acid)
chain: TGCTGTTGACAGTGAGCGACACAAGGTTCATCAGGATCTATAGTGAAGCCACAGATGTATAGATCCTGATGAACCTTGTGGTGCCTACTGCCTCGGA
B28: Myb.2652: shRNA, SEQ ID NO: 144 (also SEQ ID NO: 53) (nucleic acid)
chain: TGCTGTTGACAGTGAGCGCCCCAAGTAATACTTAATGCAATAGTGAAGCCACAGATGTATTGCATTAAGTATTACTTGGGATGCCTACTGCCTCGGA
B29: Smpd2.592: shRNA, SEQ ID NO: 183 (nucleic acid)
chain: TGCTGTTGACAGTGAGCGACAGCATGTCTACAGTCTGAATTAGTGAAGCCACAGATGTAATTCAGACTGTAGACATGCTGGTGCCTACTGCCTCGGA
B30: Nln.1429: shRNA, SEQ ID NO: 151 (nucleic acid)
chain: TGCTGTTGACAGTGAGCGAAAGGATAAAGCTACTGGAGAATAGTGAAGCCACAGATGTATTCTCCAGTAGCTTTATCCTTCTGCCTACTGCCTCGGA
B31: Gart.2713: shRNA, SEQ ID NO: 127 (nucleic acid)
chain: TGCTGTTGACAGTGAGCGAACCAGGGTAATTAATCACAAATAGTGAAGCCACAGATGTATTTGTGATTAATTACCCTGGTGTGCCTACTGCCTCGGA

The molecules below were run on immortalized murine embryonic fibroblasts (Mef) (assay: Pooled negative selection RNAi screening (deep sequencing)). Details: deep sequencing reads, on dox compared to initial representation.
Format: cell-based
How it was run: (§1)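 A pool of 1230 tet-regulated shRNAs (TRMPV-type) was retrovirally transduced at mostly single copy and ~1000-fold representation into tet-on MLL/AF9+Nras AML cells or immortalized murine embryonic fibroblasts, then cultured on or off doxycycline. shRNA-expressing cells were FACS-sorted, and shRNA representation was quantified by PCR and deep sequencing of genomic DNA, with depletion on dox compared against t0 and off dox.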

Molecule	Fold depletion in Mef
B1	3.02 Fold
B2	1.18 Fold
B3	1.09 Fold
B4	0.43 Fold
B5	1.18 Fold
B6	0.85 Fold
B7	1.92 Fold
B8	1.04 Fold
B9	1.47 Fold
B10	1.01 Fold
B11	0.38 Fold
B12	1.77 Fold
B13	2.13 Fold
B14	1.76 Fold
B15	0.54 Fold
B16	0.68 Fold

Molecule	Fold depletion in Mef
B17	1.90 Fold
B18	0.41 Fold
B19	1.44 Fold
B20	1.13 Fold
B21	0.21 Fold
B22	0.83 Fold
B23	1.36 Fold
B24	3.07 Fold
B25	0.92 Fold
B26	2.68 Fold
B27	1.80 Fold
B28	1.14 Fold
B29	2.89 Fold
B30	1.61 Fold
B31	2.22 Fold

These molecules were tested on tet-on competent MLL/AF9+Nras AML in the same assay as above. Details: deep sequencing reads, On Dox compared to T0.
Format: cell-based, mouse
How it was run: as §1

Molecule	Fold depletion in AML
B1	11.48 Fold
B2	8.45 Fold
B3	9.14 Fold
B4	9.74 Fold
B5	472.15 Fold
B6	9.00 Fold
B7	9.63 Fold
B8	8.10 Fold
B9	8.99 Fold
B10	9.37 Fold
B11	315.30 Fold
B12	13.37 Fold
B13	1,777.36 Fold
B14	8.88 Fold
B15	8.11 Fold
B16	13.25 Fold

Molecule	Fold depletion in AML
B17	9.60 Fold
B18	9.52 Fold
B19	8.69 Fold
B20	8.24 Fold
B21	8.13 Fold
B22	8.19 Fold
B23	8.57 Fold
B24	9.66 Fold
B25	67.47 Fold
B26	13.18 Fold
B27	13.60 Fold
B28	15.46 Fold
B29	8.63 Fold
B30	8.03 Fold
B31	8.73 Fold
